Experimental data: patent US20190330280, “TRANSCRIPTIONAL REGULATORY FUSION POLYPEPTIDE” (Astellas Pharma Inc., published 2019)

Columns and labels:
Test in all cases: cell_activity; human T cells, 3.0 nM protein added to medium, 24 h, 37 C
Conditions in all cases: tags: N-terminal GST, NTP cell-penetrating peptide, p300 core fusion
NTP-TALE-TERT-2-p300CD = biological target: T1, NTP-TALE-TERT-2-p300CD (artificial, UniProt P14727 SEQ:29-906)
T1 chain: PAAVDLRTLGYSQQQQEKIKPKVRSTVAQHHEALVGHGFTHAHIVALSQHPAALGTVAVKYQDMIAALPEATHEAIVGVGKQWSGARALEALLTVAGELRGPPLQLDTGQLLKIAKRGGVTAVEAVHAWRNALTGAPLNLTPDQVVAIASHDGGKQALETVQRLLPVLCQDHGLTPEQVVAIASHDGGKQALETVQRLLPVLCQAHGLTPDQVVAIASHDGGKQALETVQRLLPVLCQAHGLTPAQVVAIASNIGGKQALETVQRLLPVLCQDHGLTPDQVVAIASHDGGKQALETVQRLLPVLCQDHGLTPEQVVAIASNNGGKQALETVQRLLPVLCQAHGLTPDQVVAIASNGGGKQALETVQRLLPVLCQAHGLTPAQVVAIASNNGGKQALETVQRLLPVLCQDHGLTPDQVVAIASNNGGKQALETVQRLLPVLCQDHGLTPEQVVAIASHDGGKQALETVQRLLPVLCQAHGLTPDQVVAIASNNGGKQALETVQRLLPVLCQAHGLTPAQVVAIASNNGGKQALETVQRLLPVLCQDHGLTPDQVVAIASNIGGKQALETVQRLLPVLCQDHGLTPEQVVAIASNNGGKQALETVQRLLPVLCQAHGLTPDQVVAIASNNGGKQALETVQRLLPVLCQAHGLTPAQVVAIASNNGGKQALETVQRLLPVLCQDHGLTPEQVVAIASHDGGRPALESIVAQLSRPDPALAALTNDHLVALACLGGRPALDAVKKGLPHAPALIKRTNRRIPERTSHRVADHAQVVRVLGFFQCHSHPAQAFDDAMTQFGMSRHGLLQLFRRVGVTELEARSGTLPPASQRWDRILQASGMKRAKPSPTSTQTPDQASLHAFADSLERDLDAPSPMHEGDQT
Description: (§1) Each NTP-TALE-Activator (NTP-TALE-TERT-1-p300CD, NTP-TALE-TERT-2-p300CD and NTP-TALE-TERT-3-p300CD) targeting human TERT, prepared in Example 1 was dialyzed at 4° C. for 3 hours against OPTI-MEM medium (Thermo Fisher Scientific Inc.) in a microdialysis column (Tomy Seiko Co., Ltd.). The concentrations after purification were 40 nM NTP-TALE-TERT-1-p300CD, 55 nM NTP-TALE-TERT-2-p300CD, and 55 nM NTP-TALE-TERT-3-p300CD. Human T cells (obtained by separation from peripheral mononuclear cells in blood collected from a healthy person) were suspended in 100 μL of KBM550 (Kohjin Bio Co., Ltd.) and seeded in a 96-well plate at 0.5×10⁴ cells/well.
(§2) The obtained human T cells were cultured for 12 hours. Then, each NTP-TALE-Activator dialyzed as mentioned above was added at 3.0 nM (final concentration) to each well (as a result of conducting studies beforehand with a plurality of concentrations, the concentration at which each NTP-TALE-Activator was most responsive was 3.0 nM). Wells to which NTP-TALE-Activator was not added were prepared as a control. The plate was left standing for 24 hours in an incubator at 37° C. and a CO₂ concentration of 5%.

NTP-TALE-TERT-1-p300CD = biological target: T2, NTP-TALE-TERT-1-p300CD (artificial, UniProt P14727 SEQ:29-906)
T2 chain: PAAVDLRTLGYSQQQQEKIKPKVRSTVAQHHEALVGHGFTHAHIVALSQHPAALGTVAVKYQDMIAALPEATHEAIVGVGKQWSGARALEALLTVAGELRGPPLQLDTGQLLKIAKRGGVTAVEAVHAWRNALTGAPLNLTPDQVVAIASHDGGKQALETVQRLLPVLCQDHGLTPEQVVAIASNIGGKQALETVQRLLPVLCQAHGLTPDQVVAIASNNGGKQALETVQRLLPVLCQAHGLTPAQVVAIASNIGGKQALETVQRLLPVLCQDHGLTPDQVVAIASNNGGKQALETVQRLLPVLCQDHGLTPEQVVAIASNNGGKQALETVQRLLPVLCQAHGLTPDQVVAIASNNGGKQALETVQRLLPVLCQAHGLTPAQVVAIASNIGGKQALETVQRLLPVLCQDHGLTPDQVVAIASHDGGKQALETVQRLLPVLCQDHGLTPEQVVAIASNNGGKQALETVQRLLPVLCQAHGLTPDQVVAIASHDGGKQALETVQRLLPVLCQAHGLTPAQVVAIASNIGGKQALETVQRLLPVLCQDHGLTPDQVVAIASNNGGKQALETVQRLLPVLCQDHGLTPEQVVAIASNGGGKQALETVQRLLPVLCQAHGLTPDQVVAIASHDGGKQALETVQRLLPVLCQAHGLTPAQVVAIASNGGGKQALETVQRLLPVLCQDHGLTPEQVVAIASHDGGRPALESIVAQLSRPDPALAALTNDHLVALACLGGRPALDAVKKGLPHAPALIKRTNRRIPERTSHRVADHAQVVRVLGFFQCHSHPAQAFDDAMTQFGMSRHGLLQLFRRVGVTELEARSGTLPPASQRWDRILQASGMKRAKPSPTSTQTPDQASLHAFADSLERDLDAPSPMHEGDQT
Description: as §1, §2

NTP-TALE-TERT-3-p300CD = biological target: T3, NTP-TALE-TERT-3-p300CD (artificial, UniProt P14727 SEQ:29-906)
T3 chain: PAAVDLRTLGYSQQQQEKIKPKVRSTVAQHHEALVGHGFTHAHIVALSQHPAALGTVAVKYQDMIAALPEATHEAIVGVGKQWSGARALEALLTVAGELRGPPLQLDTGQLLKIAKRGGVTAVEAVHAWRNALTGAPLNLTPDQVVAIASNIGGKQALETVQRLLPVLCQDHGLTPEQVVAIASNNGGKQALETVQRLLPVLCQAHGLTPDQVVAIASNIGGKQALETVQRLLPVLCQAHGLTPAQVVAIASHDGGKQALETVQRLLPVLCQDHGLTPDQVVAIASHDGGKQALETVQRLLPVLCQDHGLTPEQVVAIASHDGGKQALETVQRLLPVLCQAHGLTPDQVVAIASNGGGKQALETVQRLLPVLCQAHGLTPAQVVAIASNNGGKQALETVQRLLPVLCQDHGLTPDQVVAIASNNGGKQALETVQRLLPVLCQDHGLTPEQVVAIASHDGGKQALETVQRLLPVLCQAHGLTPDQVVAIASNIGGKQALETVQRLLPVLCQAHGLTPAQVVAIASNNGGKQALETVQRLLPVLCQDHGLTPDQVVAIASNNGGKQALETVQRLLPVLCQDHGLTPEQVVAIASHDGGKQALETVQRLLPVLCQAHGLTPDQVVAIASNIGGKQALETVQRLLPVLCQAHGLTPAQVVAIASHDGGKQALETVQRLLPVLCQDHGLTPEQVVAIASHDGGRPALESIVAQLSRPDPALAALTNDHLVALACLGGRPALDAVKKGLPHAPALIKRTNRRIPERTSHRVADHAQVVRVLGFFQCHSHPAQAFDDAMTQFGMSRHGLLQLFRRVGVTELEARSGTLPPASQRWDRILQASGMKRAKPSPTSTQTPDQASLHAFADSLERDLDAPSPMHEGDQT
Description: as §1, §2

B1: human TERT promoter target (AH007699.2 nt 11029-11046) (dsDNA)
DNA 1: CCCCACGTGGCGGAGGGA
DNA 2: TCCCTCCGCCACGTGGGG
activity (NTP-TALE-TERT-2-p300CD): ~3.5 fold TERT mRNA

B2: human TERT enhancer target (AH007699.2 nt 49444-49461) (dsDNA)
DNA 1: TCAGAGGGACGCAGTCTT
DNA 2: AAGACTGCGTCCCTCTGA
activity (NTP-TALE-TERT-1-p300CD): ~17 fold TERT mRNA

B3: human TERT enhancer target (AH007699.2 nt 6501-6518) (dsDNA)
DNA 1: TAGACCCTGGCAGGCACT
DNA 2: AGTGCCTGCCAGGGTCTA
activity (NTP-TALE-TERT-3-p300CD): ~2 fold TERT mRNA
